# Assay results reported in patent publication US20230357429A1 (JANUX THERAPEUTICS, published 2023).
# Like-named read-outs stand apart in the source and are kept apart here. Where no end group is shown, it is not given here.
# B1: TBD-1 wt (Fab, V domains shown)
# VH: QVQLQQSGSELKKPGASVKVSCKASGYTFTNYGMNWVKQAPGQGLKWMGWINTYTGEPTYTDDFKGRFAFSLDTSVSTAYLQISSLKADDTAVYFCARGGFGSSYWYFDVWGQGSLVTVSS
# VL: DIQLTQSPSSLSASVGDRVSITCKASQDVSIAVAWYQQKPGKAPKLLIYSASYRYTGVPDRFSGSGSGTDFTLTISSLQPEDFAVYYCQQHYITPLTFGAGTKVEIKR
# notes: Fab; the heavy chain entry is VH-CH1; also called wild-type anti-TROP2 Fab (hRS7); TROP2 Fab
# B2: TBD-17 (HC S104A) (Fab, V domains shown)
# VH: QVQLQQSGSELKKPGASVKVSCKASGYTFTNYGMNWVKQAPGQGLKWMGWINTYTGEPTYTDDFKGRFAFSLDTSVSTAYLQISSLKADDTAVYFCARGGFGSAYWYFDVWGQGSLVTVSS
# VL: DIQLTQSPSSLSASVGDRVSITCKASQDVSIAVAWYQQKPGKAPKLLIYSASYRYTGVPDRFSGSGSGTDFTLTISSLQPEDFAVYYCQQHYITPLTFGAGTKVEIKR
# notes: Fab; also called HC S104A mutant
# B3: TBD-11 (HC R98A) (Fab, V domains shown)
# VH: QVQLQQSGSELKKPGASVKVSCKASGYTFTNYGMNWVKQAPGQGLKWMGWINTYTGEPTYTDDFKGRFAFSLDTSVSTAYLQISSLKADDTAVYFCAAGGFGSSYWYFDVWGQGSLVTVSS
# VL: DIQLTQSPSSLSASVGDRVSITCKASQDVSIAVAWYQQKPGKAPKLLIYSASYRYTGVPDRFSGSGSGTDFTLTISSLQPEDFAVYYCQQHYITPLTFGAGTKVEIKR
# notes: Fab; also called HC R98A mutant
# B4: TBD-21 (HC F108A) (Fab, V domains shown)
# VH: QVQLQQSGSELKKPGASVKVSCKASGYTFTNYGMNWVKQAPGQGLKWMGWINTYTGEPTYTDDFKGRFAFSLDTSVSTAYLQISSLKADDTAVYFCARGGFGSSYWYADVWGQGSLVTVSS
# VL: DIQLTQSPSSLSASVGDRVSITCKASQDVSIAVAWYQQKPGKAPKLLIYSASYRYTGVPDRFSGSGSGTDFTLTISSLQPEDFAVYYCQQHYITPLTFGAGTKVEIKR
# notes: Fab; also called HC F108A mutant
# What was measured:
# Peptide-33 = target: T1, Peptide-33 (cysteine pairing not given here; also: biotinylated, site not given here); assay: ELISA, Fab on captured biotin-peptide
# T1 peptide: PDFCYMYNWPVCVT
# Peptide-63 = target: T2, Peptide-63 (cysteine pairing not given here; also: biotinylated, site not given here); assay: ELISA, Fab on captured biotin-peptide
# T2 peptide: IDFCLIYNWPVCDT
# Peptide-39 = target: T3, Peptide-39 (cysteine pairing not given here; also: biotinylated, site not given here); assay: ELISA, Fab on captured biotin-peptide
# T3 peptide: VDFCGLYHWPICYQVD
# Peptide-35 = target: T4, Peptide-35 (cysteine pairing not given here; also: biotinylated, site not given here); assay: ELISA, Fab on captured biotin-peptide
# T4 peptide: EDFCYWYQWPICSD
# Peptide-37 = target: T5, Peptide-37 (cysteine pairing not given here; also: biotinylated, site not given here); assay: ELISA, Fab on captured biotin-peptide
# T5 peptide: VDFCYLYNWPVCSK
# Peptide-42 = target: T6, Peptide-42 (cysteine pairing not given here; also: biotinylated, site not given here); assay: ELISA, Fab on captured biotin-peptide
# T6 peptide: IDFCAMYHWPICDT
# Peptide-41 = target: T7, Peptide-41 (cysteine pairing not given here; also: biotinylated, site not given here); assay: ELISA, Fab on captured biotin-peptide
# T7 peptide: VDFCGLYHWPICYQVY
# Peptide-32 = target: T8, Peptide-32 (cysteine pairing not given here; also: biotinylated, site not given here); assay: ELISA, Fab on captured biotin-peptide
# T8 peptide: PDFCYMYGWPICDS
# Peptide-64 = target: T9, Peptide-64 (cysteine pairing not given here; also: biotinylated, site not given here); assay: ELISA, Fab on captured biotin-peptide
# T9 peptide: PDFCAVYRWPICYQ
# Peptide-8 = target: T10, Peptide-8 (cysteine pairing not given here; also: biotinylated, site not given here); assay: ELISA, Fab on captured biotin-peptide
# T10 peptide: VDFCGLYHWPICYQ
# Peptide-43 = target: T11, Peptide-43 (cysteine pairing not given here; also: biotinylated, site not given here); assay: ELISA, Fab on captured biotin-peptide
# T11 peptide: VDFCALYHWPICYQ
# Peptide-38 = target: T12, Peptide-38 (cysteine pairing not given here; also: biotinylated, site not given here); assay: ELISA, Fab on captured biotin-peptide
# T12 peptide: VDFCSIYHWPVCYV
# Peptide-36 = target: T13, Peptide-36 (cysteine pairing not given here; also: biotinylated, site not given here); assay: ELISA, Fab on captured biotin-peptide
# T13 peptide: VDFCYQYGWPICSR
# Peptide-25 = target: T14, Peptide-25 (cysteine pairing not given here; also: biotinylated (site not given here)); assay: ELISA, Fab on captured biotin-peptide
# T14 peptide: VDFCKIYSWPVCHQ
# Peptide-3 [1] = target: T15, Peptide-3 (cysteine pairing not given here; also: biotinylated, site not given here); assay: ELISA, Fab on captured biotin-peptide
# T15 peptide: IDFCMLYNWPICAG
# Peptide-40 = target: T16, Peptide-40 (cysteine pairing not given here; also: biotinylated, site not given here); assay: ELISA, Fab on captured biotin-peptide
# T16 peptide: VDFCYLYSWPICTK
# Peptide-62 = target: T17, Peptide-62 (cysteine pairing not given here; also: biotinylated, site not given here); assay: ELISA, Fab on captured biotin-peptide
# T17 peptide: IDFCAVYKWPVCQV
# Peptide-7 = target: T18, Peptide-7 (cysteine pairing not given here; also: biotinylated, site not given here); assay: ELISA, Fab on captured biotin-peptide
# T18 peptide: EDFCKLYNWPICYQ
# Peptide-14 = target: T19, Peptide-14 (cysteine pairing not given here; also: biotinylated (site not given here)); assay: ELISA, Fab on captured biotin-peptide
# T19 peptide: LDFCKIYDWPICHL
# Peptide-18 = target: T20, Peptide-18 (cysteine pairing not given here; also: biotinylated (site not given here)); assay: ELISA, Fab on captured biotin-peptide
# T20 peptide: MDFCQIYDWPICRL
# Peptide-10 = target: T21, Peptide-10 (cysteine pairing not given here; also: biotinylated (site not given here)); assay: ELISA, Fab on captured biotin-peptide
# T21 peptide: IDFCAIYQWPVCRS
# Peptide-29 = target: T22, Peptide-29 (cysteine pairing not given here; also: biotinylated, site not given here); assay: ELISA, Fab on captured biotin-peptide
# T22 peptide: SYLVCVKNVYCWTA
# Peptide-27 = target: T23, Peptide-27 (cysteine pairing not given here; also: biotinylated, site not given here); assay: ELISA, Fab on captured biotin-peptide
# T23 peptide: FSLVCVRNLYCWNV
# Peptide-2 = target: T24, Peptide-2 (cysteine pairing not given here; also: biotinylated (site not given here)); assay: ELISA, Fab on captured biotin-peptide
# T24 peptide: IDFCAVYKWPVCQV
# Peptide-13 = target: T25, Peptide-13 (cysteine pairing not given here; also: biotinylated (site not given here)); assay: ELISA, Fab on captured biotin-peptide
# T25 peptide: VDFCELYRWPICNS
# Peptide-3 [2] = target: T15, Peptide-3; assay: ELISA, Fab on captured biotin-peptide
# Experimental: Binding was measured in a standard ELISA format. […] Bound TBDs were detected using a standard horse radish peroxidase conjugate secondary antibody. The ELISA signal was plotted versus the log-scale concentration of TBD. The concentrations of TBD required to observe half maximal binding signal (EC₅₀s) were calculated using Graphpad Prism software.
# Peptide-46 = target: T26, Peptide-46 (cysteine pairing not given here; also: biotinylated, site not given here); assay: ELISA, Fab on captured biotin-peptide
# T26 peptide: VEFCAIYSWPICKI
# Peptide-52 = target: T27, Peptide-52 (cysteine pairing not given here; also: biotinylated, site not given here); assay: ELISA, Fab on captured biotin-peptide
# T27 peptide: VDFCYQYAWPVCSTGD
# Peptide-24 = target: T28, Peptide-24 (cysteine pairing not given here; also: biotinylated (site not given here)); assay: ELISA, Fab on captured biotin-peptide
# T28 peptide: SVLFCVKNLYCWVT
# [3] = target: T29, Human TROP2 ECD (31-274 AA), biotinylated (human, UniProt P09758 31-274, biotinylated (site not stated)); assay: ELISA, Fab on captured biotin-TROP2
# T29 construct: captured on neutravidin plates; also called TROP2-biotin; Trop2-biotin
# T29 sequence: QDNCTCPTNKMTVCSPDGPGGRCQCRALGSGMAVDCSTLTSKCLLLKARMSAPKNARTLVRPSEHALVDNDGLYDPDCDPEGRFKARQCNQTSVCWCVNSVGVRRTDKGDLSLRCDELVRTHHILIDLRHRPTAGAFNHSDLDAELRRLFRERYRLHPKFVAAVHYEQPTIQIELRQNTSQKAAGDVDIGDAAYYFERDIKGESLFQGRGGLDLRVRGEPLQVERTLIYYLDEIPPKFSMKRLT
Binder,EC50 (Peptide-33) [nM],EC50 (Peptide-63) [nM],EC50 (Peptide-39) [nM],EC50 (Peptide-37) [nM],EC50 (Peptide-42) [nM],EC50 (Peptide-41) [nM],EC50 (Peptide-32) [nM],EC50 (Peptide-64) [nM],EC50 (Peptide-8) [nM],EC50 (Peptide-43) [nM],EC50 (Peptide-38) [nM],EC50 (Peptide-36) [nM],EC50 (Peptide-3 [1]) [nM],EC50 (Peptide-40) [nM],EC50 (Peptide-62) [nM],EC50 (Peptide-7) [nM],EC50 (Peptide-14) [nM],EC50 (Peptide-18) [nM],EC50 (Peptide-10) [nM],EC50 (Peptide-2) [nM],other results
B1,29.7,162,95.2,31.7,28.5,102,34.6,28.3,35.2,27.5,178,41.4,164,39.7,81.4,37.5,379,474,62.6,13.7,EC50 (Peptide-35): 261 nM; EC50 (Peptide-25): 217 nM; EC50 (Peptide-29): 6.7 nM; EC50 (Peptide-27): 23.9 nM; EC50 (Peptide-13): 157 nM; EC50 (Peptide-3 [2]): 12.8 nM; EC50 (Peptide-46): 668 nM; EC50 (Peptide-52): 127 nM
B2,24.1,30,16.4,19.5,5.5,28.9,35.1,3.8,8,4.9,31.8,30.2,23,27,9.2,15.6,71,36.7,6.5,5.7,EC50 (Peptide-35): 215 nM; EC50 (Peptide-25): 35 nM; EC50 (Peptide-24): 133 nM; EC50 (Peptide-29): 24.8 nM; EC50 (Peptide-27): 107 nM; EC50 (Peptide-13): 10 nM; EC50 (Peptide-3 [2]): 6.4 nM; EC50 [3]: 0.3 nM
B3,144,229,151,149,86.4,159,87.7,61.7,86.4,77.5,290,60.1,296,310,136,343,332,298,272,204,EC50 (Peptide-13): 388 nM; EC50 (Peptide-3 [2]): 246 nM; EC50 [3]: 3.4 nM
B4,22.9,39.7,32.7,27.3,13.8,47.2,27.1,11,12.9,12,26.1,27,30.8,45.8,14.3,27.4,53.3,38,15.2,12.9,EC50 (Peptide-35): 331 nM; EC50 (Peptide-25): 42.3 nM; EC50 (Peptide-24): 142 nM; EC50 (Peptide-29): 23.4 nM; EC50 (Peptide-27): 149 nM; EC50 (Peptide-13): 22.6 nM; EC50 (Peptide-3 [2]): 12.3 nM; EC50 [3]: 4.2 nM
